Biological target: Fab with CK (kappa) light chain constant domain
Test: ELISA

## wild type Protein G (wild-type non-modified protein G polypeptide)
  fold lower EC50 for CK than for Cλ: 7 fold

Reference: patent publication US20240043534A1
